Results: patent US20240400618A1
pKd: −log10 of the molar value.

Target: pxEBN4-ACE2-AAA-His (human) (UniProt Q9BYF1)

Substance | pKd
UK, Alpha, pxENB9-FLS (from UniProt P0DTC2 15-1213) (ligand) | 11.94
SA, Beta, pxENB9-FLS-B.1.351 (from UniProt P0DTC2 15-1213) (ligand) | 8.80
